The labels stand for the following.
B2: monoclonal antibody EGX-P-E9 (antibody, V domains shown)
VH: EVQLQQSGAELVRSGASVKLSCTASGFNIKDYYIHWVKQGPEQGLEWVGYIDPENGETAYAPKFQGKATLTADTSSNTAYLQLISLTSEDTAVYYCNAPYFSLGRNYWGQGTTLTVSS
VL: NVLMTQTPLSLPVSLGDQASISCRSSQSIVHGNGDTYLEWYLQKPGQSPKLLIYKVSNRFSGVPDRFSGSGSGTDFTLKIRRVEAEDLGVYYCFQGSHVPLTFGAGTKLELK
notes: Mouse IgG purified from hybridoma medium with Protein G; also called anti-PAMP EGX-P-E9 IgG; antibody of hybridoma clone PTA-7958
B5: human PAMP (13-20) (peptide)
peptide: WNKWALSR
modifications: ends and bridges not checked
notes: also called N-terminally truncated human PAMP, residues 13-20; C-terminal-most 8 residues of PAMP

For experiment [1], the target named is B2. Kind of experiment: competitive ELISA: EGX-P-E9-coated wells, 10 nM biotinylated human full-length PAMP plus 1 µM (100x) unlabeled competitor peptide, streptavidin-peroxidase, OD. How it is done: (§1) The activity of the purified monoclonal antibody EGX-P-E9 was examined by ELISA (Enzyme Linked Immunosorbent Assay, FIG. 1). Wells of a 96-well microtiter plate were coated with 5 μg/ml anti-PAMP EGX-P-E9 IgG diluted in PBS for several hours. After washing wells with PBS, the coated wells were then incubated with a skim milk-PBS solution (Milk/PBS) to block non-specific antigen-binding. To determine the EC50, an estimate of the dissociation constant, various concentration (12 μM to 2 μM in Milk/PBS) of biothinylated human PAMP (biotinylated to an added N-terminal cysteine) was incubated in EGX-P-E9-coated wells. After washing wells with PBS+0.05% Tween 20 (PBST), the EGX-P-E9-biotin-PAMP complex was captured by the streptavidin-peroxidase conjugate and quantified by measuring the A450 using the peroxidase substrate TMB fluorescent reagent (Sigma Aldrich) and Benchmark microplate reader (BioRad).
The specificity of anti-PAMP EGX-P-E9 was also tested by ELISA with competitor PAMP peptides (FIG. 2). Antibody EGX-P-E9-coated wells were loaded with 10 nM biotinylated human full-length PAMP in Milk/PBS supplemented with one hundred fold excess (1 μM) of the following unlabeled competitor PAMP peptides: Rat PAMP, mouse PAMP, human full length PAMP (hum FL), and various N-terminally truncated human PAMPs (containing only residues 8-20, 10-20, 12-20 or 13-20). Quantification of the EGX-P-E9-biotin-PAMP complex was done as described above.
(ELISA stands for enzyme-linked immunosorbent assay.)

Experiment [2] has as its target B5. Kind of experiment: competition ELISA with truncated PAMP peptides. How it is done:
as §1
The specificity of anti-PAMP EGX-P-E9 was also tested by ELISA with competitor PAMP peptides (FIG. 2). […] Quantification of the EGX-P-E9-biotin-PAMP complex was done as described above.

The target in experiment [3] is T1, biotinylated human PAMP (biotinylated to an added N-terminal cysteine) (human, not fully specified; biotin on the added N-terminal cysteine; C-terminal amide).
T1 construct: also called biotin-PAMP; biotinylated human full-length PAMP
T1 peptide: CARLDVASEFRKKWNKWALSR
In words: ELISA, antibody-coated wells, titration of biotinylated human PAMP, streptavidin-peroxidase detection. Here is the method:
as §1

For experiment [4], the target named is B2. Kind of experiment: competition ELISA, non-biotinylated PAMP against 6.2 nM biotinylated PAMP on EGX-P-E9-coated wells. Here is the method:
as §1
To confirm the affinity for PAMP, IC50 values were determined by competing the binding of the EGX-P-E9 antibody to the biotinylated PAMP with native (non-biotinylated) human PAMP. […] After washing the wells with PBST, the EGX-P-E9-biotin-PAMP complex was detected using the streptavidin-peroxidase conjugate and quantified by measuring the A450 using the peroxidase substrate TMB fluorescent reagent (Sigma Aldrich) and Benchmark microplate reader (BioRad) as above.

No end group written: not given here.

For orientation: EC50 means the concentration at which the effect is half-maximal. For orientation: IC50 means the concentration at which inhibition is half-maximal. A low value points to higher potency.

B1: human PAMP (8-20) (peptide)
peptide: EFRKKWNKWALSR
modifications: ends and bridges not checked
notes: also called N-terminally truncated human PAMP, residues 8-20
With B1, the binding result in experiment [1] is recorded as “binds”.
Consider B2, for which, in experiment [2], the binding result is “binds”. The molecule further gave an EC50 in experiment [3] of 6.2 nM.

B3: native (non-biotinylated) human PAMP (peptide)
peptide: ARLDVASEFRKKWNKWALSR-NH2
notes: also called human full length PAMP; hum FL
In experiment [4], B3 came in with an IC50 of 4 nM. In other words, the single-digit nanomolar range.

B4: human PAMP (12-20) (peptide)
peptide: KWNKWALSR
modifications: not fully specified (C-terminus); ends and bridges not checked
notes: also called N-terminally truncated human PAMP, residues 12-20
As to B4, in experiment [1], the binding result is listed as “binds”.
As for ARLDTSSQFRKKWNKWALSR-NH2 [Rat PAMP], the binding result in experiment [1] is reported as “binds”.
The same measure, in the same setting: then AGPDTPSQFRKKWNKWALSR-NH2 [mouse PAMP], with “binds”; and B5, with “binds”.

B6: human PAMP (10-20) (peptide)
peptide: RKKWNKWALSR
modifications: ends and bridges not checked
notes: also called N-terminally truncated human PAMP, residues 10-20
In the case of B6, in experiment [1], the binding result is given as “binds”.

(Values after US20110301332A1 (CEPHALON AUSTRALIA VIC, published 2011).)
